How the values were obtained:
Assay in all cases: IEDB peptide-MHC binding, purified MHC/competitive/radioactivity; filed as Kd, often an IC50 or EC50 that approximates it; ≥ and ≤ were set here for values at or beyond the usual limits of such assays
HLA-A*33:01 = molecular target: HLA-A*33:01
HLA-A*68:01 = molecular target: HLA-A*68:01
HLA-A*03:01 = molecular target: HLA-A*03:01
HLA-A*31:01 = molecular target: HLA-A*31:01
HLA-A*11:01 = molecular target: HLA-A*11:01
[1] = source organism: Mammarenavirus whitewaterense
[2] = source organism: Dengue virus 2 Jamaica/1409/1983
[3] = source organism: Vaccinia virus WR
[4] = source organism: SARS coronavirus Tor2
[5] = source organism: Dengue virus 1 Nauru/West Pac/1974
[6] = source organism: Dengue virus 4 Philippines/H241/1956
[7] = source organism: Dengue virus 3 Martinique/1243/1999
[8] = source organism: Lassa virus Josiah
[9] = source organism: Dengue virus 1 Brazil/97-11/1997

For SFKDQSKYCH, the Kd (HLA-A*33:01; [1]) was 8.63 µM, the Kd (HLA-A*68:01; [1]) was ≥ 70.1 µM and the Kd (HLA-A*03:01; [1]) was ≥ 70 µM. For the same sequence, the Kd (HLA-A*31:01; [1]) was 1.16 µM and the Kd (HLA-A*11:01; [1]) was ≥ 69.7 µM.

In the case of ALFLEEMLR, the Kd (HLA-A*03:01; [2]) is reported as 0.304 µM.

VALYRRIQRR was tested, and the Kd (HLA-A*33:01; [3]) was 1.34 µM, the Kd (HLA-A*68:01; [3]) was ≥ 30.5 µM and the Kd (HLA-A*03:01; [3]) was ≥ 70.1 µM. For the same sequence, the Kd (HLA-A*31:01; [3]) was 0.562 µM and the Kd (HLA-A*11:01; [3]) was ≥ 48.2 µM.

ESALNDTWK showed a Kd (HLA-A*68:01; [2]) of 0.0905 µM.

In the case of RQFHQKLLK, the Kd (HLA-A*33:01; [4]) is reported as ≥ 77.7 µM, the Kd (HLA-A*68:01; [4]) is reported as ≥ 39.5 µM and the Kd (HLA-A*03:01; [4]) is reported as 0.0126 µM. The Kd (HLA-A*31:01; [4]) was 0.0085 µM and the Kd (HLA-A*11:01; [4]) was 0.0133 µM.

In the case of MISRMLINR, the Kd (HLA-A*33:01; [2]) is reported as 0.0097 µM, the Kd (HLA-A*68:01; [2]) is reported as 0.0227 µM and the Kd (HLA-A*31:01; [2]) is reported as 0.00437 µM. It also gave a Kd (HLA-A*11:01; [2]) of 0.258 µM.

Work on ALCTLLHLHR yielded a Kd (HLA-A*33:01; [4]) of 0.401 µM, a Kd (HLA-A*68:01; [4]) of 3.41 µM and a Kd (HLA-A*03:01; [4]) of 0.301 µM. For the same sequence, the Kd (HLA-A*31:01; [4]) was 0.051 µM and the Kd (HLA-A*11:01; [4]) was 0.47 µM.

For FFLSGRGLGK, the Kd (HLA-A*03:01; [5]) was 0.012 µM.

Sequence ENMEVEIWTR has a Kd (HLA-A*33:01; [6]) of 0.106 µM.

Work on KAIKILTGFR yielded a Kd (HLA-A*31:01; [6]) of 0.00775 µM.

LLNRFTMTHR showed a Kd (HLA-A*31:01; [7]) of 0.0152 µM.

With VVYRAFDIY the Kd (HLA-A*33:01; [4]) was ≥ 25.1 µM, the Kd (HLA-A*68:01; [4]) was 3.34 µM and the Kd (HLA-A*03:01; [4]) was 0.163 µM. It also gave a Kd (HLA-A*31:01; [4]) of 7.86 µM and a Kd (HLA-A*11:01; [4]) of 0.149 µM.

IFMRDWNSKY was tested, and the Kd (HLA-A*33:01; [3]) was 13.7 µM, the Kd (HLA-A*68:01; [3]) was 10.9 µM and the Kd (HLA-A*03:01; [3]) was ≥ 33.3 µM. The Kd (HLA-A*31:01; [3]) was 2.48 µM and the Kd (HLA-A*11:01; [3]) was ≥ 20.5 µM.

With EAVYGNIKHK the Kd (HLA-A*33:01; [3]) was ≥ 70 µM, the Kd (HLA-A*68:01; [3]) was 0.0623 µM and the Kd (HLA-A*03:01; [3]) was 18.7 µM. It also gave a Kd (HLA-A*31:01; [3]) of 13.9 µM and a Kd (HLA-A*11:01; [3]) of 11.7 µM.

In the case of NSTTDAEACY, the Kd (HLA-A*33:01; [3]) is reported as ≥ 70 µM, the Kd (HLA-A*68:01; [3]) is reported as 7.37 µM and the Kd (HLA-A*03:01; [3]) is reported as ≥ 70.1 µM. For the same sequence, the Kd (HLA-A*31:01; [3]) was ≥ 70 µM and the Kd (HLA-A*11:01; [3]) was 17.8 µM.

For NSTCYVFGLY, the Kd (HLA-A*33:01; [3]) was 9 µM, the Kd (HLA-A*68:01; [3]) was 0.00895 µM and the Kd (HLA-A*03:01; [3]) was 0.161 µM. For the same sequence, the Kd (HLA-A*31:01; [3]) was 3.24 µM and the Kd (HLA-A*11:01; [3]) was 0.0195 µM.

AAYYFMKFR gave a Kd (HLA-A*33:01; [4]) of 0.117 µM, a Kd (HLA-A*68:01; [4]) of 0.0154 µM and a Kd (HLA-A*03:01; [4]) of 0.124 µM. The Kd (HLA-A*31:01; [4]) was 0.00123 µM and the Kd (HLA-A*11:01; [4]) was 0.0472 µM.

With KSCICYGSY the Kd (HLA-A*33:01; [3]) was 0.364 µM, the Kd (HLA-A*68:01; [3]) was ≥ 29.7 µM and the Kd (HLA-A*03:01; [3]) was 0.437 µM. For the same sequence, the Kd (HLA-A*31:01; [3]) was 0.418 µM and the Kd (HLA-A*11:01; [3]) was 0.00688 µM.

KTNDINVRR gave a Kd (HLA-A*33:01; [3]) of 16.7 µM, a Kd (HLA-A*68:01; [3]) of 0.0121 µM and a Kd (HLA-A*03:01; [3]) of 0.112 µM. It also gave a Kd (HLA-A*31:01; [3]) of 0.00224 µM and a Kd (HLA-A*11:01; [3]) of 0.0301 µM.

With NWLARVGRER the Kd (HLA-A*33:01; [2]) was 0.242 µM.

DSEPISILDR was tested, and the Kd (HLA-A*33:01; [3]) was 4.62 µM, the Kd (HLA-A*68:01; [3]) was 0.518 µM and the Kd (HLA-A*03:01; [3]) was ≥ 70.1 µM. The Kd (HLA-A*31:01; [3]) was ≥ 52.8 µM and the Kd (HLA-A*11:01; [3]) was ≥ 61.4 µM.

TTGRTSLPK gave a Kd (HLA-A*33:01; [8]) of 14.5 µM, a Kd (HLA-A*68:01; [8]) of 13.3 µM and a Kd (HLA-A*03:01; [8]) of 5.24 µM. The Kd (HLA-A*31:01; [8]) was 18 µM and the Kd (HLA-A*11:01; [8]) was 1.76 µM.

For RTAIHSLYGR, the Kd (HLA-A*11:01; source organism: Mammarenavirus guanaritoense) was 0.142 µM.

For FSGKSTELIR, the Kd (HLA-A*33:01; [3]) was 1.79 µM, the Kd (HLA-A*68:01; [3]) was 0.881 µM and the Kd (HLA-A*03:01; [3]) was ≥ 38.1 µM. It also gave a Kd (HLA-A*31:01; [3]) of 1.92 µM and a Kd (HLA-A*11:01; [3]) of 17.1 µM.

Work on KLKPRWLDAR yielded a Kd (HLA-A*31:01; [2]) of 0.00139 µM.

Work on ELTTVFIKY yielded a Kd (HLA-A*33:01; [3]) of 5.45 µM, a Kd (HLA-A*68:01; [3]) of 0.855 µM and a Kd (HLA-A*03:01; [3]) of 0.269 µM. For the same sequence, the Kd (HLA-A*31:01; [3]) was 1.82 µM and the Kd (HLA-A*11:01; [3]) was 6.69 µM.

TLLPLTQYNR gave a Kd (HLA-A*33:01; [4]) of 4.59 µM, a Kd (HLA-A*68:01; [4]) of 3.41 µM and a Kd (HLA-A*03:01; [4]) of 7.22 µM. It also gave a Kd (HLA-A*31:01; [4]) of 1.34 µM and a Kd (HLA-A*11:01; [4]) of 8.14 µM.

SAGAGVLDK was tested, and the Kd (HLA-A*33:01; [3]) was ≥ 77.7 µM, the Kd (HLA-A*68:01; [3]) was 3.35 µM and the Kd (HLA-A*03:01; [3]) was 0.243 µM. The Kd (HLA-A*31:01; [3]) was ≥ 26.6 µM and the Kd (HLA-A*11:01; [3]) was 0.316 µM.

For LMCHATFTTR, the Kd (HLA-A*33:01; [6]) was 0.0971 µM and the Kd (HLA-A*31:01; [6]) was 0.0127 µM.

Sequence RVSTVSQLAK has a Kd (HLA-A*03:01; [5]) of 0.00604 µM and a Kd (HLA-A*11:01; [5]) of 0.0403 µM.

For AINVLRGFR, the Kd (HLA-A*31:01; [2]) was 0.00372 µM.

FFLRKLTSR showed a Kd (HLA-A*33:01; [7]) of 0.0466 µM and a Kd (HLA-A*31:01; [7]) of 0.0477 µM.

For ETCVYNMMGK, the Kd (HLA-A*68:01; [2]) was 0.0191 µM and the Kd (HLA-A*11:01; [2]) was 1.17 µM.

With GLYGNGVVTK the Kd (HLA-A*03:01; [7]) was 0.00365 µM.

In the case of NMLNIMNRRK, the Kd (HLA-A*03:01; source organism: Dengue virus 1 Singapore/S275/1990) is reported as 0.181 µM.

With CTLPPLRFR the Kd (HLA-A*33:01; [9]) was 0.00413 µM and the Kd (HLA-A*31:01; [9]) was ≥ 77.9 µM.

For YSMCTGKFK, the Kd (HLA-A*11:01; [2]) was 0.55 µM.

VTVASAAQR was tested, and the Kd (HLA-A*68:01; [9]) was 0.0487 µM.

GVCGIRSTTR was tested, and the Kd (HLA-A*31:01; [7]) was 0.0272 µM.

Sequence CVYNMMGKR has a Kd (HLA-A*68:01; [6]) of 0.117 µM, a Kd (HLA-A*03:01; [6]) of 0.0634 µM and a Kd (HLA-A*31:01; [6]) of 0.137 µM.

For MSYTMCSGK, the Kd (HLA-A*68:01; [6]) was 0.00587 µM and the Kd (HLA-A*03:01; [6]) was 0.00304 µM.

RKTFVELMRR gave a Kd (HLA-A*31:01; [9]) of 0.0512 µM.

Work on LAILFEEVMR yielded a Kd (HLA-A*68:01; [7]) of 0.0297 µM.

With SIFKLTYQNK the Kd (HLA-A*03:01; [9]) was 0.0152 µM and the Kd (HLA-A*11:01; [9]) was 0.0659 µM.

With STMPLVMAWR the Kd (HLA-A*33:01; [6]) was 0.00289 µM, the Kd (HLA-A*68:01; [6]) was 0.0152 µM and the Kd (HLA-A*31:01; [6]) was 0.00116 µM. It also gave a Kd (HLA-A*11:01; [6]) of 0.0148 µM.

For TALAFHLTTR, the Kd (HLA-A*68:01; [9]) was 0.101 µM and the Kd (HLA-A*31:01; [9]) was ≥ 39.8 µM.
